From patent US20190256864A1 (INDIANA UNIVERSITY RESEARCH AND TECHNOLOGY, published 2019)

Key:
[1] = target: T1, AtPBS1:HA
T1 chain: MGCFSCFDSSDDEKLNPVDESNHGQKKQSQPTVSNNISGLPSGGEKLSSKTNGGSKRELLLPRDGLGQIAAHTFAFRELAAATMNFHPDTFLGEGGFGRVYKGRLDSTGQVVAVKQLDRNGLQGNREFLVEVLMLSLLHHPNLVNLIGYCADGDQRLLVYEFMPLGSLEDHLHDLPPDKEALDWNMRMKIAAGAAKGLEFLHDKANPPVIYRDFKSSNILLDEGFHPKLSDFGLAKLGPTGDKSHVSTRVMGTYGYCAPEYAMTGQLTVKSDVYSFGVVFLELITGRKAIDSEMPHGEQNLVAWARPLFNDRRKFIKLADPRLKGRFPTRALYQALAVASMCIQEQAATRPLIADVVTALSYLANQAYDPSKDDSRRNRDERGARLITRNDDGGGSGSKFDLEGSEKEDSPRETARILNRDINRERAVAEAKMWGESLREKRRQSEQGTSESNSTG

[2] = target: T2, GmPBS1a
T2 chain: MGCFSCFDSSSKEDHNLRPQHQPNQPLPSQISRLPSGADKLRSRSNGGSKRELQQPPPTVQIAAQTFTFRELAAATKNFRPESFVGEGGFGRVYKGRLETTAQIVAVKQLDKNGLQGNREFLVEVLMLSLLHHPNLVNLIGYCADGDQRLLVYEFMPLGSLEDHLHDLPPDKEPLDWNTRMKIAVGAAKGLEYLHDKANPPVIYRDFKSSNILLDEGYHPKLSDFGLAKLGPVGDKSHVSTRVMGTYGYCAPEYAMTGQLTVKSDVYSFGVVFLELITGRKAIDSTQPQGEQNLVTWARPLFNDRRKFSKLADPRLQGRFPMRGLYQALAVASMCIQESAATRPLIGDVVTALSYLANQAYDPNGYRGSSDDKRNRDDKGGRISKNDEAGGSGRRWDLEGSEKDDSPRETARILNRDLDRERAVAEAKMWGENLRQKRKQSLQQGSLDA

[3] = target: T3, GmPBS1b
T3 chain: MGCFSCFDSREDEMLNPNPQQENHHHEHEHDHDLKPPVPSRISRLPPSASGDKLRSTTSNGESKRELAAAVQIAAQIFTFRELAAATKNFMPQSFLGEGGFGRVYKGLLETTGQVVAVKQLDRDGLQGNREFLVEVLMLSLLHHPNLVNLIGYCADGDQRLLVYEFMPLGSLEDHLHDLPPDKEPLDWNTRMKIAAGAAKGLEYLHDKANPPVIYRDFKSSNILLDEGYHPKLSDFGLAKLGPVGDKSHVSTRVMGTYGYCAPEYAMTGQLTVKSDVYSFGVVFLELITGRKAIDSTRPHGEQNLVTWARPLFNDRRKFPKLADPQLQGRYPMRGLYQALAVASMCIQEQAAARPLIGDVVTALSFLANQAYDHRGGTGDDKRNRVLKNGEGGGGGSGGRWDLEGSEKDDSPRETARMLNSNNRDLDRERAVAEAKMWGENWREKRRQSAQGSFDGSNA

[4] = target: T4, GmPBS1c
T4 chain: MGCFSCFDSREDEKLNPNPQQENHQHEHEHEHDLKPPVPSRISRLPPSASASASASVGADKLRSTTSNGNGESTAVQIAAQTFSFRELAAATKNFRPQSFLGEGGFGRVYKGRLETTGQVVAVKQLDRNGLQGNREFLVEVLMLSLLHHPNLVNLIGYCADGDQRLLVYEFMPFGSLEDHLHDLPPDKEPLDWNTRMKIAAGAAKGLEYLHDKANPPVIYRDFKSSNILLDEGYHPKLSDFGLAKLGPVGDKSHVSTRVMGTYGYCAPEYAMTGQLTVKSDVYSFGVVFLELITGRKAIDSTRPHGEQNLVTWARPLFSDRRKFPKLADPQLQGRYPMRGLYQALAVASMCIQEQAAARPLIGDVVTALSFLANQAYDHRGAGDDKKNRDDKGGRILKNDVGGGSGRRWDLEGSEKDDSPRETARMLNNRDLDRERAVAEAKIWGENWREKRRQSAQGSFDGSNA

[5] = target: T5, HvPBS1-1:HA
T5 chain: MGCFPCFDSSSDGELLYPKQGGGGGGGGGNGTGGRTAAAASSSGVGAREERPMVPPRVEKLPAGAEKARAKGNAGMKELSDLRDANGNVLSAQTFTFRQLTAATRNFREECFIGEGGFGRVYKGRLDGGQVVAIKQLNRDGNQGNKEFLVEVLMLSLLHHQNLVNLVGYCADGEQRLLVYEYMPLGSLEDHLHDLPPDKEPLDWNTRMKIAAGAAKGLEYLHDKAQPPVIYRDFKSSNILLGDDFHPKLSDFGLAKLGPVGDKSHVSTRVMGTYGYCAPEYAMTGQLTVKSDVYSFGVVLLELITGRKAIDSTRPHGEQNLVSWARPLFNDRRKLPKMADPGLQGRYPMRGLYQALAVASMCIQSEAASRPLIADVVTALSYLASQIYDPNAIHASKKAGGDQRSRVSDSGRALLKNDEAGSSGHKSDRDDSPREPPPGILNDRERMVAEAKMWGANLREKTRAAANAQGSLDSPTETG

[6] = target: T6, HvPBS1-2:HA
T6 chain: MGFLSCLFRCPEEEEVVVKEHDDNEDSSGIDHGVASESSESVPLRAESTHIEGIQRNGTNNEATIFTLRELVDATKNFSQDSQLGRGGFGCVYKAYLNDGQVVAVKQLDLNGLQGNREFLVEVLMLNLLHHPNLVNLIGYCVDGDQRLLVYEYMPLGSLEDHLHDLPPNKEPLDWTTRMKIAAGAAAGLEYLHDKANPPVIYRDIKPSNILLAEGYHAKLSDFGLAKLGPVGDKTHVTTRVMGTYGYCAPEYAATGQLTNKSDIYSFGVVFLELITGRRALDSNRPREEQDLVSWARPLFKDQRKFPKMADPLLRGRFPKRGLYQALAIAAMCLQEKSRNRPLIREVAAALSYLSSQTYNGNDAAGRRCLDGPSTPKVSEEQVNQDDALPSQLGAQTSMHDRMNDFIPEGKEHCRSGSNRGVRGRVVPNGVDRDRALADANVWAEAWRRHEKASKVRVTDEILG

[7] = target: NbPBS1:HA

B1: AvrPphB:myc (protein)
chain: MKIGTQATSLAVLHNQESHAPQAPIAVRPEPAHAIPEIPLDLAIRPRTRGIHPFLAMTLGDKGCASSSGVSLEDDSHTQVSLSDFSVASRDVNHNNICAGLSTEWLVMSSDGDAESRMDHLDYNGEGQSRGSERHQVYNDALRAALSNDDEAPFFTASTAVIEDAGFSLRREPKTVHASGGSAQLGQTVAHDVAQSGRKHLLSLRFANVQGHAIACSCEGSQFKLFDPNLGEFQSSRSAAPQLIKGLIDHYNSLNYDVACVNEFRVS
B1 was tested, and the “cleavage of the substrate (immunoblot after co-expression in N. benthamiana)” value [1] was “immunoblots showing cleavage of PBS1 proteins from Arabidopsis (At), soybean (Gm) and barley (Hv) by AvrPphB”, the “cleavage of the substrate” value [2] was “AvrPphB induces cleavage of all three soybean PBS1 proteins” and the “cleavage of the substrate” value [3] was “AvrPphB induces cleavage of all three soybean PBS1 proteins”. For the same protein, the “cleavage of the substrate” value [4] was “AvrPphB induces cleavage of all three soybean PBS1 proteins”, the “cleavage of the substrate (Western blot after transient co-expression in N. benthamiana)” value [5] was “HvPBS1-1:HA and HvPBS1-2:HA are each cleaved by AvrPphB:myc” and the “cleavage of the substrate (Western blot after transient co-expression in N. benthamiana)” value [6] was “HvPBS1-1:HA and HvPBS1-2:HA are each cleaved by AvrPphB:myc”. The “cleavage of the substrate (immunoblot after transient co-expression in N. benthamiana)” value [7] was “Co-expression with AvrPphB:myc, but not the protease inactive mutant, resulted in cleavage of NbPBS1:HA within 6 hours post-transgene expression”.
